Test results as given in publication PMC10669680.

Biological target: HIV-1 reverse transcriptase p51 (isolated polymerase domain) with the C38V/C280S/M357T substitutions, no affinity tag (HIV-1)
Assay: SEC; Superdex 200 Increase 5/150, SEC buffer 50 mM Bis-Tris, 1 M NaCl, 1 mM CDTA, pH 6.5; samples 80% SEC buffer, 20% glycerol; [NaCl] varied 0.15-1.0 M and [p51] varied 10-80 µM; monomer to dimer

Q: How did the stoichiometry N turn out when “HIV-1 reverse transcriptase p51 (isolated polymerase domain) with the C38V/C280S/M357T substitutions, no affinity tag (domain or fragment)” was run?
A: Its stoichiometry N is 2.
